Experimental findings from US20240116985A1 (published 2024) are described below.

One may read the EC50 as the concentration giving half of the maximal effect. What is called IC50 is the concentration that inhibits the measured activity by half. A low value points to inhibition by little substance.

Assay [1] has as its target T1, full-length beta-Catenin (Uniprot ID P35222) (Homo sapiens (Human), UniProt P35222 2-781).
T1 construct: The assay protocols say only 'full-length'; No tag is stated, although the AlphaScreen kit is a Histidine (Nickel Chelate) kit; also called B-Catenin; bCat
T1 sequence: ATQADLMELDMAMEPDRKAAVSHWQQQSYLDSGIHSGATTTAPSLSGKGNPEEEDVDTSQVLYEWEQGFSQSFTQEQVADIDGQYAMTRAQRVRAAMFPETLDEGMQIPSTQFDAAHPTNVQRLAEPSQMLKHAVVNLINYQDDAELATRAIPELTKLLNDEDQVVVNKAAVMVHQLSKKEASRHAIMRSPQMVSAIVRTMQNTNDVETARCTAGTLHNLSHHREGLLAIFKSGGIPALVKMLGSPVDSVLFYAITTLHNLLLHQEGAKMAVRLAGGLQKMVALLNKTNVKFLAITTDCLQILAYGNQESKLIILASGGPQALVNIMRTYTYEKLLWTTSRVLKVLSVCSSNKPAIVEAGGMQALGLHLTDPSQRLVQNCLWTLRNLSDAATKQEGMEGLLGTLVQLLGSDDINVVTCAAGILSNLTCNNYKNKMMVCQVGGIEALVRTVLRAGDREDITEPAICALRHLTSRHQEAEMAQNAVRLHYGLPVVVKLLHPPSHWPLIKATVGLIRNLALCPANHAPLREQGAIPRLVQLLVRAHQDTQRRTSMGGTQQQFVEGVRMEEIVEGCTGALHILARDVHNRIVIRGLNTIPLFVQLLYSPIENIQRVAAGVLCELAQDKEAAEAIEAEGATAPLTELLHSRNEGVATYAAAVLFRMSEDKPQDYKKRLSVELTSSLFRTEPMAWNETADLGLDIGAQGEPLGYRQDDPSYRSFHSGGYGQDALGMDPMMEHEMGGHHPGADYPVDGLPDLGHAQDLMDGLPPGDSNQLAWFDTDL
The assay is described as follows: fluorescence polarization competition; peptide titrated against full-length beta-catenin + 5FAM-TCF4(10-53) probe. As to the method: The plate was incubated protected from light for 60 minutes at 20° C. prior to read. Reads were performed on a CLARIOstar plate reader (BMG Labtech) in duplicate, and data were fitted to a 1:1 binding model with hill slope using an in-house script. All provided concentrations are final concentrations.

For assay [2], the target named is T2, B-cat-Halo (beta-catenin HaloTag NanoBRET construct expressed in HEK293 cells) (UniProt P35222 1-781, HaloTag NanoBRET 618 Ligand bound to the HaloTag).
T2 sequence (looked up): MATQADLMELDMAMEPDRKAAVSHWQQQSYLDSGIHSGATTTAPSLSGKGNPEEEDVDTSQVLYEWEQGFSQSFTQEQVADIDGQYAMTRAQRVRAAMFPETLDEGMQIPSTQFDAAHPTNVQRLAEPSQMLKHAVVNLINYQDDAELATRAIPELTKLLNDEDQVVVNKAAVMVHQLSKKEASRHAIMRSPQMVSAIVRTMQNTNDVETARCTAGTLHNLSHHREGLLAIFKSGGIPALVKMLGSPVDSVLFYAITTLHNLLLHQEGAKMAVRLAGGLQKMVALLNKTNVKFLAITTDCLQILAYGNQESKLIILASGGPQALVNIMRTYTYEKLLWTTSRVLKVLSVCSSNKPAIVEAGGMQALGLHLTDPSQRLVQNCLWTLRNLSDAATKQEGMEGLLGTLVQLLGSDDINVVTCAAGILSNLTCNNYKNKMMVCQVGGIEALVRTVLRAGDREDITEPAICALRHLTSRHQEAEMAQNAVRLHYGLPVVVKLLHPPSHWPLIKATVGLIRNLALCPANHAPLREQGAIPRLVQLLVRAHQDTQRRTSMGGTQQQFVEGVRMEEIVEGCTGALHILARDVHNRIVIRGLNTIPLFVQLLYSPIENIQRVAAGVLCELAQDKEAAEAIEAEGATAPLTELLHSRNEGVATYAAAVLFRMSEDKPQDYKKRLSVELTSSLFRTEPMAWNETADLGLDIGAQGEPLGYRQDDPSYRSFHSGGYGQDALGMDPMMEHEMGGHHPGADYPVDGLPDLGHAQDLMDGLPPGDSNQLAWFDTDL
The assay is described as follows: cell-based or functional assay.

In assay [3] the target is T3, full-length beta-Catenin (Uniprot ID P35222) (Homo sapiens (Human), UniProt P35222 1-781).
T3 construct: Any tags on the recombinant protein are not described for the FP assay; also called bCat; B-Catenin
T3 sequence: T2 sequence (looked up)
The assay is described as follows: fluorescence polarization competition; displacement of 5FAM-TCF4(10-53) from full-length beta-catenin. A digest of the protocol: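 Readings followed a light-protected 60-minute incubation at 20° C. Each read was done in duplicate. Curves were fit with a 1:1 binding model including hill slope, and stated concentrations are final.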

Assay [4] concerns the target T4, beta-catenin in DLD1 TCF/LEF luciferase reporter cells (UniProt P35222 1-781).
T4 sequence (looked up): T2 sequence (looked up)
Description: cell-based or functional assay.

Assay [5] deals with T5, B-cat-Halo (beta-catenin HaloTag construct expressed in HEK293 cells) (UniProt P35222 1-781).
T5 sequence (looked up): T2 sequence (looked up)
Description: cell-based or functional assay.

The target of assay [6] is T1, full-length beta-Catenin (Uniprot ID …). Description: AlphaScreen competition; peptide titrated against full-length beta-catenin + biotin-TCF4(10-53). Here is the method: Equal volume of the titrated peptide was added to the plate and incubated for 15 minutes at 20° C. Then 4 uL of donor and 4 uL acceptor beads at 10 ug/mL were added to the plate, for a 16 uL reaction pool and protected from light for 60 minutes at 20° C. prior to read. Reads were performed on a CLARIOstar plate reader (BMG Labtech) in duplicate, and data were fitted to a 1:1 binding model with hill slope using an in-house script. All provided concentrations are final concentrations.

The target in assay [7] is T6, B-cat-Halo (beta-catenin HaloTag Nano-BRET construct) (UniProt P35222 1-781).
T6 sequence (looked up): T2 sequence (looked up)
Description: cell-based or functional assay.

Starred links: 1 amine or outer side, 2 acyl side, 3 side chain; linkers in the order of their positions; H or OH if unused. Positions of bridges follow the written chain, without caps; N, C: chain ends. Non-standard residues stand in square brackets, D forms with d. Primed or numbered codes have the meaning given here. B5(15) = 2-amino-2-(pent-4-en-1-yl)hept-6-enoic acid (2,2-bis(4-pentenyl)glycine), stitching residue bearing two staples, C=CCCCC(CCCC=C)(N[*:1])C(=O)[*:2]; PyrS2″ = (S)-3-amino-1-((pent-4-en-1-yloxy)carbonyl)pyrrolidine-3-carboxylic acid (stapling residue), C=CCCCOC(=O)N1CC[C@@](N[*:1])(C(=O)[*:2])C1; B5(4) = 2,2-bis(4-pentenyl)glycine = 2-amino-2-(pent-4-en-1-yl)hept-6-enoic acid (stitching residue), C=CCCCC(CCCC=C)(N[*:1])C(=O)[*:2]; (EtSSEt)AspE = (S)-2-amino-4-(2-(ethyldisulfaneyl)ethoxy)-4-oxobutanoic acid, CCSSCCOC(=O)C[C@H](N[*:1])C(=O)[*:2]; B5(19) = 2-amino-2-(pent-4-en-1-yl)hept-6-enoic acid (bis(4-pentenyl)glycine), C=CCCCC(CCCC=C)(N[*:1])C(=O)[*:2]; B5(3) = 2,2-bis(4-pentenyl)glycine (stitching residue), C=CCCCC(CCCC=C)(N[*:1])C(=O)[*:2]; B5 = 2-amino-2-(pent-4-en-1-yl)hept-6-enoic acid, C=CCCCC(CCCC=C)(N[*:1])C(=O)[*:2]; Phe(4-CN) = N#Cc1ccc(C[C@H](N)C(=O)O)cc1; Bta = N[C@@H](Cc1csc2ccccc12)C(=O)O; αAllylPro = C=CC[C@@]1(C(=O)O)CCCN1; tBuAla = CC(C)(C)C[C@H](N)C(=O)O; 3Thi = N[C@@H](Cc1ccsc1)C(=O)O; S8 = C=CCCCCCC[C@](C)(N)C(=O)O; hSer = N[C@@H](CCO)C(=O)O A value given as a limit tells only on which side of the number the result lay.

B1: I-354 (peptide)
peptide: XDAXDDAAAVXFWQ
modifications: not fully specified; N-terminal Ac; C-terminal NH2; PL3 at 1, B5 at 4, S8 at 11 (stapled 1-4 and 4-11)
notes: Stapled peptide composition; Later-eluting isomer composition; also called Ac-PL3-Asp-Ala-B5-Asp-Asp-Ala-Ala-Ala-Val-S8-Phe-Trp-Gln-NH2
Regarding B1, the EC50 in assay [1] was 5 µM.

B2: I-1529: Ac-PL3-Asp-Ser-B5-Asp-Glu-Ala-Ala-Phe-Hse-S8-Phe-BztA-Gln-NH2 (peptide)
peptide: Ac-[αAllylPro]DS[B5(15)]DEAAF[hSer][S8]F[Bta]Q-NH2
modifications: staple 1-4, 4-11; not fully specified; printed as Ac-PL3-Asp-Ser-B5-Asp-Glu-Ala-Ala-Phe-Hse-S8-Phe-BztA-Gln-NH2
notes: Stapled peptide composition
With B2, the “NanoBRET Abs IC50” value in assay [2] is greater than 20 µM. The molecule further came in with a half-inhibitory concentration (IC50) in assay [3] of 0.126 µM.

B3: I-1530: Ac-PL3-Asp-Ser-B5-Asp-Glu-Ala-Ala-Phe-Hse-S8-Phe-BztA-Gln-NH2 (peptide)
peptide: Ac-[αAllylPro]DS[B5(15)]DEAAF[hSer][S8]F[Bta]Q-NH2
modifications: staple 1-4, 4-11; not fully specified; printed as Ac-PL3-Asp-Ser-B5-Asp-Glu-Ala-Ala-Phe-Hse-S8-Phe-BztA-Gln-NH2
notes: Stapled peptide composition; It has the same description as I-1529 and is the staple isomer composition of the later eluting HPLC peak
Turning to B3, the “NanoBRET Abs IC50” value in assay [2] was found to be 36.9 µM. Moreover, the 50% inhibitory concentration (IC50) in assay [3] worked out at 0.061 µM.

B4: I-1531: Ac-PL3-Asp-Asn-B5-Asp-Glu-Ala-Ala-Phe-Gln-S8-Phe-BztA-Gln-NH2 (peptide)
peptide: XDNXDEAAFQXFXQ
modifications: not fully specified; N-terminal Ac; C-terminal NH2; PL3 at 1, B5 at 4 and S8 at 11 stapled by olefin metathesis (PL3-B5 and B5-S8); BztA at 13
notes: Stapled peptide composition; It has the same description as I-1532 and is the staple isomer composition of the earlier eluting HPLC peak
On to B4, for which, in assay [2], the “NanoBRET Abs IC50” value was greater than 20 µM. In assay [3], this molecule showed an IC50 of 0.084 µM.
Ac-[αAllylPro]D[tBuAla][B5(3)]DDAAFT[PyrS2″][3Thi][Bta]Q-NH2 (staple 1-4, 4-11) [I-809]: in assay [4], the “DLD1 4% Abs IC50” value came out at 11.3 µM. Further, the “NanoBRET Abs IC50” value in assay [5] was found to be 6.1 µM.

B5: I-358 (peptide)
peptide: XDAXDDAAFVXFAQ
modifications: not fully specified; N-terminal Ac; C-terminal NH2; PL3 at 1, B5 at 4, S8 at 11 (stapled 1-4 and 4-11)
notes: Stapled peptide composition; Later-eluting isomer composition; also called Ac-PL3-Asp-Ala-B5-Asp-Asp-Ala-Ala-Phe-Val-S8-Phe-Ala-Gln-NH2
For B5, the EC50 was 5 µM in assay [1] and 10 µM in assay [6].
Turning to Ac-[αAllylPro]D[tBuAla][B5(4)]D[(EtSSEt)AspE]AAFL[PyrS2″][3Thi][Bta]Q-NH2 (staple 1-4, 4-11) [I-1965], the “NanoBRET Abs IC50” value in assay [7] was 25.2 µM.

B6: I-359 (peptide)
peptide: Ac-[αAllylPro]DA[B5(19)]DDAAFV[S8][Phe(4-CN)][Bta]Q-NH2
modifications: staple 1-4, 4-11
notes: Stapled peptide composition; also called Ac-PL3-Asp-Ala-B5-Asp-Asp-Ala-Ala-Phe-Val-S8-4CNF-BztA-Gln-NH2
Turning to B6, the EC50 in assay [1] is 5 µM.
Regarding Ac-[αAllylPro]D[tBuAla][B5]DDAAFN[PyrS2″][3Thi][Bta]S-NH2 (staple 1-4, 4-11) [I-815], the “DLD1 4% Abs IC50” value in assay [4] amounted to 10.3 µM. The “NanoBRET Abs IC50” value in assay [5] is 15.4 µM.

B7: I-356 (peptide)
peptide: XDAXDDAAFVXAWQ
modifications: not fully specified; N-terminal Ac; C-terminal NH2; PL3 at 1, B5 at 4, S8 at 11 (stapled 1-4 and 4-11)
notes: Stapled peptide composition; Later-eluting isomer composition; also called Ac-PL3-Asp-Ala-B5-Asp-Asp-Ala-Ala-Phe-Val-S8-Ala-Trp-Gln-NH2
Turning to B7, the EC50 stood at 5 µM in assay [1] and 8.2 µM in assay [6].
